Molecular target: T1, hexahistidine (his6)-tagged Qc-SNARE Vam7 (yeast, UniProt P32912 1-316)
T1 sequence (looked up): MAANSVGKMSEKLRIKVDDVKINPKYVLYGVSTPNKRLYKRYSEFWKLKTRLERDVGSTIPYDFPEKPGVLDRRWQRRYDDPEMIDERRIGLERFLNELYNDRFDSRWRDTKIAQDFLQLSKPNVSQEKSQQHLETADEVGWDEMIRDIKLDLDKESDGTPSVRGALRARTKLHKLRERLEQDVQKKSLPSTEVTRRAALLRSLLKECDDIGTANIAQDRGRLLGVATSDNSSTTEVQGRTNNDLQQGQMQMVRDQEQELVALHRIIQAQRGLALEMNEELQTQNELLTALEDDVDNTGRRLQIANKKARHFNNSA
Assay: pull-down

B1: yeast vacuolar R-SNARE Nyv1, membrane-anchored (natural protein, UniProt Q12255 1-253, looked up)
chain: MKRFNVSYVEVIKNGETISSCFQPFQKNENYGTITSANEQITPVIFHNLIMDMVLPKVVPIKGNKVTKMSMNLIDGFDCFYSTDDHDPKTVYVCFTLVDMPKILPIRILSGLQEYESNATNELLSSHVGQILDSFHEELVEYRNQTLNSSGNGQSSNGNGQNTISDIGDATEDQIKDVIQIMNDNIDKFLERQERVSLLVDKTSQLNSSSNKFRRKAVNIKEIMWWQKVKNITLLTFTIILFVSAAFMFFYLW
B1: binds.
